What follows are sequences tested on Escherichia coli TOP10 (assay: shrunken log2 fold change of peptide-encoding DNA abundance (4.5 h post-induction vs induction); higher = less antimicrobial activity (less host growth inhibition)). Details: time post-induction: 4.5 h; library: site-saturation at positions 5, 18, 19, 20.
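Further: peptides expressed intracellularly from a pBAD plasmid library in pooled LB shake-flask culture, induced with 0.3% L-arabinose, DNA abundance read by NGS, three biological replicates, DESeq2 with apeglm shrinkage.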

Sequence | shrunken log2 fold change
RRIRHRPPRLPRPRPRPVLVPRP | -0.0156
RRIRHRPPRLPRPRPRPHWCPRP | -0.0566
RRIRGRPPRLPRPRPRPAAMPRP | 1.54
RRIRERPPRLPRPRPRPVHCPRP | -0.293
RRIRARPPRLPRPRPRPMEYPRP | -0.154
RRIRDRPPRLPRPRPRPHLLPRP | 0.0253
RRIRIRPPRLPRPRPRPEHVPRP | -0.0143
RRIRERPPRLPRPRPRPMVNPRP | -0.0701
RRIRTRPPRLPRPRPRPWQKPRP | -0.1
RRIRMRPPRLPRPRPRPIHTPRP | -0.0437
RRIRKRPPRLPRPRPRPCMKPRP | -0.0153
RRIRLRPPRLPRPRPRPSRLPRP | -0.0544
RRIRYRPPRLPRPRPRPFIVPRP | -0.173
RRIRHRPPRLPRPRPRPSTQPRP | -0.0473
RRIRCRPPRLPRPRPRPGMFPRP | -0.462
RRIRKRPPRLPRPRPRPIYQPRP | -0.0246
RRIRVRPPRLPRPRPRPDPNPRP | -0.231
RRIRCRPPRLPRPRPRPKLTPRP | -0.223
RRIRKRPPRLPRPRPRPFKPPRP | 0.0806
RRIRIRPPRLPRPRPRPRTAPRP | 0.436
RRIRIRPPRLPRPRPRPNNHPRP | -1.03
RRIRERPPRLPRPRPRPTMQPRP | 0.0612
RRIRFRPPRLPRPRPRPTAQPRP | -0.00528
RRIRGRPPRLPRPRPRPCICPRP | 0.102
RRIRMRPPRLPRPRPRPFSKPRP | -0.284

Sequence | shrunken log2 fold change
RRIRCRPPRLPRPRPRPLVSPRP | -0.245
RRIRPRPPRLPRPRPRPHGTPRP | -0.0314
RRIRGRPPRLPRPRPRPHFEPRP | 0.328
RRIRPRPPRLPRPRPRPKHWPRP | 0.273
RRIRVRPPRLPRPRPRPEYAPRP | 0.111
RRIRGRPPRLPRPRPRPIFWPRP | 0.531
RRIRWRPPRLPRPRPRPESFPRP | 0.528
RRIRCRPPRLPRPRPRPHEWPRP | 0.00702
RRIRPRPPRLPRPRPRPATHPRP | 0.0822
RRIRSRPPRLPRPRPRPNCAPRP | -0.172
RRIRTRPPRLPRPRPRPKACPRP | 0.0653
RRIRYRPPRLPRPRPRPDSEPRP | -0.0121
RRIRKRPPRLPRPRPRPVLHPRP | 0.484
RRIRFRPPRLPRPRPRPDLKPRP | 0.166
RRIRGRPPRLPRPRPRPKCAPRP | 1.61
RRIRLRPPRLPRPRPRPPYNPRP | -0.689
RRIRWRPPRLPRPRPRPQYQPRP | -0.268
RRIRSRPPRLPRPRPRPDMYPRP | 0.00612
RRIRGRPPRLPRPRPRPQCLPRP | 0.405
RRIRGRPPRLPRPRPRPIKKPRP | 0.00565
RRIRFRPPRLPRPRPRPCMFPRP | -0.556
RRIRGRPPRLPRPRPRPQNHPRP | -0.18
RRIRRRPPRLPRPRPRPMGAPRP | 0.658
RRIRDRPPRLPRPRPRPIDYPRP | -0.0396
RRIRDRPPRLPRPRPRPDLVPRP | 1.16

Sequence | shrunken log2 fold change
RRIRRRPPRLPRPRPRPIQSPRP | 0.0301
RRIRNRPPRLPRPRPRPQEHPRP | 0.422
RRIRMRPPRLPRPRPRPDELPRP | 2.12
RRIRARPPRLPRPRPRPDVCPRP | -0.0214
RRIRCRPPRLPRPRPRPWCDPRP | -0.211
RRIRNRPPRLPRPRPRPVNPPRP | -0.216
RRIRVRPPRLPRPRPRPNMNPRP | -0.745
RRIRVRPPRLPRPRPRPYCEPRP | -0.0433
RRIRRRPPRLPRPRPRPYKKPRP | 0.142
RRIRFRPPRLPRPRPRPFIRPRP | -0.588
RRIRRRPPRLPRPRPRPNVNPRP | -0.0627
RRIRRRPPRLPRPRPRPDNEPRP | 0.207
RRIRMRPPRLPRPRPRPIICPRP | -0.00127
RRIRYRPPRLPRPRPRPGHHPRP | -0.132
RRIRTRPPRLPRPRPRPYKWPRP | -0.0875
RRIRSRPPRLPRPRPRPARPPRP | 0.691
RRIRTRPPRLPRPRPRPWMHPRP | 0.032
RRIRLRPPRLPRPRPRPHHDPRP | -0.694
RRIRCRPPRLPRPRPRPCQRPRP | 0.0663
RRIRQRPPRLPRPRPRPYCAPRP | -0.624
RRIRARPPRLPRPRPRPGCWPRP | 0.965
RRIRKRPPRLPRPRPRPCQKPRP | -0.0405
RRIRRRPPRLPRPRPRPYDNPRP | -0.636
RRIRHRPPRLPRPRPRPHTLPRP | -0.247
RRIRHRPPRLPRPRPRPLAAPRP | 0.325

Sequence | shrunken log2 fold change
RRIRHRPPRLPRPRPRPTDWPRP | 0.223
RRIRPRPPRLPRPRPRPPTQPRP | 0.12
RRIRQRPPRLPRPRPRPCFMPRP | 0.628
RRIRTRPPRLPRPRPRPPAGPRP | 0.279
RRIRRRPPRLPRPRPRPARHPRP | 0.447
RRIRVRPPRLPRPRPRPLQEPRP | 0.298
RRIRYRPPRLPRPRPRPWKRPRP | 0.047
RRIRWRPPRLPRPRPRPFRPPRP | -0.165
RRIRERPPRLPRPRPRPGLQPRP | 0.103
RRIRWRPPRLPRPRPRPDIYPRP | -0.0594
RRIRQRPPRLPRPRPRPAGKPRP | 0.0246
RRIRDRPPRLPRPRPRPLAHPRP | 0.151
RRIRSRPPRLPRPRPRPYIHPRP | -0.737
RRIRQRPPRLPRPRPRPNCVPRP | -0.0688
RRIRRRPPRLPRPRPRPFPRPRP | 0.272
RRIRWRPPRLPRPRPRPHMWPRP | -0.138
RRIRDRPPRLPRPRPRPCGKPRP | 0.2
RRIRGRPPRLPRPRPRPRMGPRP | 0.868
RRIRARPPRLPRPRPRPDWGPRP | 0.272
RRIRVRPPRLPRPRPRPYWTPRP | -0.366
RRIRIRPPRLPRPRPRPECVPRP | 0.0147
RRIRVRPPRLPRPRPRPFIHPRP | -0.104
RRIRRRPPRLPRPRPRPTWKPRP | 0.112
RRIRVRPPRLPRPRPRPDTDPRP | -0.646
RRIRPRPPRLPRPRPRPVAPPRP | 0.411

Sequence | shrunken log2 fold change
RRIRFRPPRLPRPRPRPEAWPRP | 0.00383
RRIRDRPPRLPRPRPRPEHQPRP | -0.012
RRIRHRPPRLPRPRPRPMYEPRP | -0.0116
RRIRDRPPRLPRPRPRPNVYPRP | 0.0576
RRIRIRPPRLPRPRPRPTTKPRP | -0.664
RRIRKRPPRLPRPRPRPRRYPRP | 0.47
RRIRPRPPRLPRPRPRPLKNPRP | 0.186
RRIRCRPPRLPRPRPRPCRQPRP | 0.0584
RRIRRRPPRLPRPRPRPDRSPRP | -0.0169
RRIRCRPPRLPRPRPRPYSAPRP | -0.752
RRIRIRPPRLPRPRPRPCHRPRP | -0.452
RRIRFRPPRLPRPRPRPKIRPRP | -0.226
RRIRLRPPRLPRPRPRPYPKPRP | -0.0574
RRIRCRPPRLPRPRPRPYPWPRP | -1.29
RRIRVRPPRLPRPRPRPMLMPRP | 0.00342
RRIRQRPPRLPRPRPRPDKKPRP | -0.0704
RRIRIRPPRLPRPRPRPYVNPRP | -0.0125
RRIRVRPPRLPRPRPRPSEYPRP | -0.418
RRIRLRPPRLPRPRPRPAMYPRP | -0.139
RRIRERPPRLPRPRPRPAYWPRP | 0.000956
RRIRARPPRLPRPRPRPCDCPRP | -0.21
RRIRKRPPRLPRPRPRPPMFPRP | 0.269
RRIRDRPPRLPRPRPRPLLQPRP | 0.287
RRIRKRPPRLPRPRPRPYTWPRP | -0.231
RRIRIRPPRLPRPRPRPDIHPRP | -0.587

Sequence | shrunken log2 fold change
RRIRTRPPRLPRPRPRPYGFPRP | -0.315
RRIRRRPPRLPRPRPRPHEWPRP | -0.00636
RRIRTRPPRLPRPRPRPNRLPRP | 0.0657
RRIRTRPPRLPRPRPRPCSFPRP | -0.625
RRIRSRPPRLPRPRPRPWFQPRP | -0.246
RRIRWRPPRLPRPRPRPTTKPRP | 0.5
RRIRSRPPRLPRPRPRPLLVPRP | 0.0795
RRIRIRPPRLPRPRPRPLQLPRP | -0.573
RRIRVRPPRLPRPRPRPFNYPRP | -0.975
RRIRERPPRLPRPRPRPGGQPRP | 0.171
RRIRCRPPRLPRPRPRPLLGPRP | 0.201
RRIRSRPPRLPRPRPRPKMHPRP | 0.157
RRIRLRPPRLPRPRPRPGKHPRP | -0.0923
RRIRSRPPRLPRPRPRPLDQPRP | -0.0226
RRIRRRPPRLPRPRPRPHKCPRP | -0.346
RRIRDRPPRLPRPRPRPAPHPRP | 0.852
RRIRDRPPRLPRPRPRPGHMPRP | -0.0968
RRIRQRPPRLPRPRPRPWALPRP | -0.0992
RRIRLRPPRLPRPRPRPSPTPRP | 1.06
RRIRSRPPRLPRPRPRPVWGPRP | 0.185
RRIRNRPPRLPRPRPRPSIDPRP | -0.782
RRIRFRPPRLPRPRPRPVENPRP | -0.109
RRIRYRPPRLPRPRPRPGSTPRP | -0.0367
RRIRCRPPRLPRPRPRPQAVPRP | -0.154
RRIRRRPPRLPRPRPRPPPLPRP | 0.963

Source: the supplement of paper PMC9112550, “Optimization of the antimicrobial peptide Bac7 by deep mutational scanning” (BMC Biology, 2022)
